# Test results reported in article PMC3308923 (2012).
# Biological target: H6MA-CA, His-tagged matrix-capsid (MAp17-CAp24) domains of the HIV-1 Gag precursor (HIV-1 (pNL4-3))
# Test: ITC
binder,measurement,value
Ank^GAG1D4 (designed binder) DLGKKLLEAARAGQDDEVRLLLEHGADVNARDSIGSTPLHLAAYYGHLEIVRLLLEHGADVNARDSTGTTPLHYAARLGHLEIVRLLLEHGADVNARDAMGWTPLHLAAKKGHLEIVRLLLKHGADVNANDHFGKTAFDISIDNGNEDLAEILQSFNHHHHHH,Kd,1090 nM
